According to patent publication US20190270815A1 (WUXI BIOLOGICS IRELAND, published 2019):

Key:
[1] = target: T1, murine PD-1 (Sino biological) (murine, UniProt Q02242 25-167, limits assumed); experiment: ELISA on plate-coated murine PD-1
T1 sequence (looked up): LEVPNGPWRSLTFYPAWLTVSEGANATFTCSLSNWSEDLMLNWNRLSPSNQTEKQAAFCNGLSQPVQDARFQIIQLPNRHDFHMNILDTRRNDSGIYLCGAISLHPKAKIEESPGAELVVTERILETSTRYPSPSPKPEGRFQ
Method: 3.3.1 Cross-reactivity to cynomolgus PD-1 and murine PD-1: Cross-reactivity was measured by ELISA. Plates (Nunc) were coated with cynomolgus PD-1 (Sino Biological) and murine PD-1 (Sino biological) at 1 μg/ml overnight at 4° C. After blocking and washing, […] antibodies were added to the plates and incubated at room temperature for 1 h. The plates were then washed and subsequently incubated with secondary antibody goat anti rat IgG1 HRP (Bethyl) and goat anti rat IgG2b HRP (Bethyl) for 45 min. After washing, TMB substrate was added and the interaction was stopped by 2M HCl. The absorbance at 450 nm was read using a microplate reader (Molecular Device).

[2] = target: T2, human PD-1 expressed on cells (human, UniProt Q15116 25-288); experiment: FACS on CHO-S cells expressing human PD-1
T2 construct: whole, on cells; also called PD-1 expressing CHO cell; PD-1 transfected CHO-S cells
T2 sequence (Q15116 25-288): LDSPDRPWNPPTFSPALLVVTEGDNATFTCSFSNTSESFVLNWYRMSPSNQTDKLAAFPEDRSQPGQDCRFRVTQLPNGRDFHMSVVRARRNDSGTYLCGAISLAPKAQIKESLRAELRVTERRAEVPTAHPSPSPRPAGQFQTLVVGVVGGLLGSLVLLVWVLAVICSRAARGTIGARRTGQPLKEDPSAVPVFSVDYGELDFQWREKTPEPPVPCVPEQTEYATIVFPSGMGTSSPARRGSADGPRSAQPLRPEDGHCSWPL
Method: 3.1 Binding affinity of PD-1 antibodies to cell surface PD-1 molecules tested by flow cytometry (FACS): Antibody binding affinity to cell surface PD-1 was performed by FACS analysis. CHO-S cells expressing human PD-1 were transferred in to 96-well U-bottom plates (BD) at a density of 5×10⁵ cells/ml. Tested antibodies were 1:2 serially diluted in wash buffer (1×PBS/1% BSA) and incubated with cells at 4° C. for 1 h. The secondary antibody goat anti-human IgG Fc FITC (3.0 moles FITC per mole IgG, (Jackson Immunoresearch Lab) was added and incubated at 4° C. in the dark for 1 h. The cells were then washed once and resuspended in 1×PBS/1% BSA, and analyzed by flow cytometery (BD). Fluorescence intensity will be converted to bound molecules/cell based on the quantitative beads Quantum™ MESF Kits, Bangs Laboratories, Inc.). KD was calculated using Graphpad Prism5.

[3] = target: T3, hPD-1 ECD-His point mutant P 39 (to alanine) (human, UniProt Q15116 25-170); experiment: ELISA, antibody coated, His-tagged PD-1 mutant supernatant; fold change vs silent alanine substitutions
T3 construct: extracellular domain
T3 sequence (Q15116 other isoform, or with tags, fused parts or gaps mutant): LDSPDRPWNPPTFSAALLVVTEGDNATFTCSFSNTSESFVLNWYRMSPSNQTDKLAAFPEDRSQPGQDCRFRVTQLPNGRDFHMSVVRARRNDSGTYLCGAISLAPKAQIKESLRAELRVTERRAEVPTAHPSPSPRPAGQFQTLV
Method: (§1) After interacting with the supernatant that contains quantified PD-1 mutant, HRP conjugated anti-His antibody (Rockland, Cat#200-303-382) was added as detection antibody. Absorbance was normalized according to the average of control mutants. After setting an additional cutoff to t4he binding fold change (<0.55), the final determined epitope residues were identified.

[4] = target: T4, hPD-1 ECD-His point mutant N 49 (to alanine) (human, UniProt Q15116 25-170); experiment: as above
T4 construct: extracellular domain
T4 sequence (Q15116 other isoform, or with tags, fused parts or gaps mutant): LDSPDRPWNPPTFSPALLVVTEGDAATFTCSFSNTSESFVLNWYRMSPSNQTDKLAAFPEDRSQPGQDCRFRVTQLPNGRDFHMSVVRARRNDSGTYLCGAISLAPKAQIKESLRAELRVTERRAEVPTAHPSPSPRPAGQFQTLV
Method: as §1

[5] = target: T5, hPD-1 ECD-His point mutant V 64 (to alanine) (human, UniProt Q15116 25-170); experiment: as above
T5 construct: extracellular domain
T5 sequence (Q15116 other isoform, or with tags, fused parts or gaps mutant): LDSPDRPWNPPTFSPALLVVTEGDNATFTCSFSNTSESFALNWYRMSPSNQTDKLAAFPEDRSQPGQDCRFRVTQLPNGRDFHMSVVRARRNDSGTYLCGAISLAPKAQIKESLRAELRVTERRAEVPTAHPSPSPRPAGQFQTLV
Method: as §1

[6] = target: T6, hPD-1 ECD-His point mutant L 65 (to alanine) (human, UniProt Q15116 25-170); experiment: as above
T6 construct: extracellular domain
T6 sequence (Q15116 other isoform, or with tags, fused parts or gaps mutant): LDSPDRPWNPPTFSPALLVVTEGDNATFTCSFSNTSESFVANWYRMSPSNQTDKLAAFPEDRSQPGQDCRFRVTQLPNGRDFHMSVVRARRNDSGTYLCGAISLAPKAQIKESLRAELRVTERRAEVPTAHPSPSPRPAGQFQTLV
Method: as §1

[7] = target: T7, hPD-1 ECD-His point mutant D 85 (to alanine) (human, UniProt Q15116 25-170); experiment: as above
T7 construct: extracellular domain
T7 sequence (Q15116 other isoform, or with tags, fused parts or gaps mutant): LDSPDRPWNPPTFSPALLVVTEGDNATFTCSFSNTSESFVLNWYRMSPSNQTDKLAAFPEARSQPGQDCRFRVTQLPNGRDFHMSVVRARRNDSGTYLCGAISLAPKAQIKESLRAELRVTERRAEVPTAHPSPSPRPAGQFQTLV
Method: as §1

[8] = target: T8, hPD-1 ECD-His point mutant F 95 (to alanine) (human, UniProt Q15116 25-170); experiment: as above
T8 construct: extracellular domain
T8 sequence (Q15116 other isoform, or with tags, fused parts or gaps mutant): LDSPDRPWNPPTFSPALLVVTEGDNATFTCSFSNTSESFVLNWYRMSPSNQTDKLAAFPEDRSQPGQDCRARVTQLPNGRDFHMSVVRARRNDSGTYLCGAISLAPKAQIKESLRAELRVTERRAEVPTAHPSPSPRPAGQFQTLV
Method: as §1

[9] = target: T9, hPD-1 ECD-His point mutant M 108 (to alanine) (human, UniProt Q15116 25-170); experiment: as above
T9 construct: extracellular domain
T9 sequence (Q15116 other isoform, or with tags, fused parts or gaps mutant): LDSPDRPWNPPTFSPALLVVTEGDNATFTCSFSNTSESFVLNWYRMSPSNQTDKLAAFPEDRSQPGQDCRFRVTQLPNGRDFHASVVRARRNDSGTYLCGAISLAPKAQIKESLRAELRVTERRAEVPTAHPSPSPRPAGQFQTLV
Method: as §1

[10] = target: T10, hPD-1 ECD-His point mutant I 126 (to alanine) (human, UniProt Q15116 25-170); experiment: as above
T10 construct: extracellular domain
T10 sequence (Q15116 other isoform, or with tags, fused parts or gaps mutant): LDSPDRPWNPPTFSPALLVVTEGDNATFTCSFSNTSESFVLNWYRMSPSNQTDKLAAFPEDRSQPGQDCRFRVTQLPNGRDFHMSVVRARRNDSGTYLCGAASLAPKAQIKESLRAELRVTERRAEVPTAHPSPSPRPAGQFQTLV
Method: as §1

[11] = target: T11, hPD-1 ECD-His point mutant L 128 (to alanine) (human, UniProt Q15116 25-170); experiment: as above
T11 construct: extracellular domain
T11 sequence (Q15116 other isoform, or with tags, fused parts or gaps mutant): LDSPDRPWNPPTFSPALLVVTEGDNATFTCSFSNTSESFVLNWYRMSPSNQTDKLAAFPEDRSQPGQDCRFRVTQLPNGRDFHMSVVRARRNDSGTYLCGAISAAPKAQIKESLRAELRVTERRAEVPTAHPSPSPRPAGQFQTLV
Method: as §1

[12] = target: T12, hPD-1 ECD-His point mutant A 129 (to glycine) (human, UniProt Q15116 25-170); experiment: as above
T12 construct: extracellular domain
T12 sequence (Q15116 other isoform, or with tags, fused parts or gaps mutant): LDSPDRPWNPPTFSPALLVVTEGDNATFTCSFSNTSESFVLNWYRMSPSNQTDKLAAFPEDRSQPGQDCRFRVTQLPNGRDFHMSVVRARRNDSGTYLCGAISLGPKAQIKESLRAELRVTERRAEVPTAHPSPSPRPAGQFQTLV
Method: as §1

[13] = target: T13, hPD-1 ECD-His point mutant K 131 (to alanine) (human, UniProt Q15116 25-170); experiment: as above
T13 construct: extracellular domain
T13 sequence (Q15116 other isoform, or with tags, fused parts or gaps mutant): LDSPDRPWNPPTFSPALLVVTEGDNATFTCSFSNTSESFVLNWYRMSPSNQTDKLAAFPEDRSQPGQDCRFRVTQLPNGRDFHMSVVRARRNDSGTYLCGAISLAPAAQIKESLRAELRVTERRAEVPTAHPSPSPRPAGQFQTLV
Method: as §1

[14] = target: T14, hPD-1 ECD-His point mutant Q 133 (to alanine) (human, UniProt Q15116 25-170); experiment: as above
T14 construct: extracellular domain
T14 sequence (Q15116 other isoform, or with tags, fused parts or gaps mutant): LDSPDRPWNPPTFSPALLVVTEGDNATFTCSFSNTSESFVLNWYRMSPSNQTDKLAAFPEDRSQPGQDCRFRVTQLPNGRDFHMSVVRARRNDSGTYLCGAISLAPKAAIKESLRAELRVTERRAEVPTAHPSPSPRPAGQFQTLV
Method: as §1

[15] = target: T15, hPD-1 ECD-His point mutant K 135 (to alanine) (human, UniProt Q15116 25-170); experiment: as above
T15 construct: extracellular domain
T15 sequence (Q15116 other isoform, or with tags, fused parts or gaps mutant): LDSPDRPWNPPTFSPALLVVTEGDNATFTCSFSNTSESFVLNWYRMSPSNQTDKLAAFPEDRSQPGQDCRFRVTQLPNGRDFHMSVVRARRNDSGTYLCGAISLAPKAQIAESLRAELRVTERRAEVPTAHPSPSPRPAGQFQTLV
Method: as §1

[16] = target: T16, hPD-1 ECD-His point mutant S 137 (to alanine) (human, UniProt Q15116 25-170); experiment: as above
T16 construct: extracellular domain
T16 sequence (Q15116 other isoform, or with tags, fused parts or gaps mutant): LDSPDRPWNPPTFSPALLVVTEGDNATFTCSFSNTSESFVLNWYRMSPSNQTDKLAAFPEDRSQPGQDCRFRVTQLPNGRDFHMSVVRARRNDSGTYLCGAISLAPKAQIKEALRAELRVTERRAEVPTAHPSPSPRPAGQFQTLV
Method: as §1

[17] = target: T17, hPD-1 ECD-His point mutant L 142 (to alanine) (human, UniProt Q15116 25-170); experiment: as above
T17 construct: extracellular domain
T17 sequence (Q15116 other isoform, or with tags, fused parts or gaps mutant): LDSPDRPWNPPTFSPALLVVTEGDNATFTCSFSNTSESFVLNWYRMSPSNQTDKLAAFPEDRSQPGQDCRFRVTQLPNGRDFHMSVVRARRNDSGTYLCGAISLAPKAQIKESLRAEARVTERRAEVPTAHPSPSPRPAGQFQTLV
Method: as §1

[18] = target: T18, hPD-1 ECD-His point mutant V 144 (to alanine) (human, UniProt Q15116 25-170); experiment: as above
T18 construct: extracellular domain
T18 sequence (Q15116 other isoform, or with tags, fused parts or gaps mutant): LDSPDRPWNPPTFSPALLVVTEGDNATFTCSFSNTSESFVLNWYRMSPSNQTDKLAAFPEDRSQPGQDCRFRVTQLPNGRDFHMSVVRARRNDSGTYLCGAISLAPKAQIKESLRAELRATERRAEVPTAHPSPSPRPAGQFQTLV
Method: as §1

EC50 [2]: ~2 nM
fold change [3]: 0.55
fold change [4]: 0.73
fold change [5]: 0.32
fold change [6]: 0.75
fold change [7]: 0.24
fold change [8]: 0.63
fold change [9]: 0.56
fold change [10]: 0.64
fold change [11]: 0.32
fold change [12]: 0.22
fold change [13]: 0.43
fold change [14]: 0.37
fold change [15]: 0.62
fold change [16]: 0.62
fold change [17]: 0.44
fold change [18]: 0.22
B1: 1.103.11 hAb (antibody, V domains shown)
VH: QLQLQESGPGLVKPSETLTLTCTVSADSISSTTYYWVWIRQPPGKGLEWIGSISYSGSTYYNPSLKSRVTVSVDTSKNQFSLKLNSVAATDTALYYCARHLGYNGRYLPFDYWGQGTLVTVSS
VL: QSALTQPASVSGSPGQSITISCTGTSSDVGFYNYVSWYQQHPGKAPELMIYDVSNRPSGVSDRFSGSKSGNTASLTISGLQAEDEADYYCSSYTNISTWVFGGGTKLTVL
notes: fully human monoclonal antibody with a human constant region of IgG4 isotype
binding result [1]: no binding (tested: 1 g/ml antibodies (so in the source))
